Results taken from patent US20250368686A1 (OKINAWA INSTITUTE OF SCIENCE AND TECHNOLOGY SCHOOL, published 2025).

B1: κ-type opioid receptor (KOR), rat, wild type, fluorescently tagged, expressed in the PM of CHO-K1 cells (Example 1) (receptor, UniProt P34975 1-380, looked up)
chain: MESPIQIFRGEPGPTCAPSACLLPNSSSWFPNWAESDSNGSVGSEDQQLEPAHISPAIPVIITAVYSVVFVVGLVGNSLVMFVIIRYTKMKTATNIYIFNLALADALVTTTMPFQSAVYLMNSWPFGDVLCKIVISIDYYNMFTSIFTLTMMSVDRYIAVCHPVKALDFRTPLKAKIINICIWLLASSVGISAIVLGGTKVREDVDVIECSLQFPDDEYSWWDLFMKICVFVFAFVIPVLIIIVCYTLMILRLKSVRLLSGSREKDRNLRRITKLVLVVVAVFIICWTPIHIFILVEALGSTSHSTAVLSSYYFCIALGYTNSSLNPVLYAFLDENFKRCFRDFCFPIKMRMERQSTNRVRNTVQDPASMRDVGGMNKPV
notes: whole, on cells; also called WT-KOR; κ-OPR; not shown: fluorescent tag protein
B2: SNAPf-KOR: rat KOR with the SNAPf tag protein at its N-terminus, expressed in the PM of CHO-K1 cells (Example 2) (receptor, not shown: small tags and cut ends)
chain: SGGGSGGSGGGSGGSGGGSGGMESPIQIFRGEPGPTCAPSACLLPNSSSWFPNWAESDSNGSVGSEDQQLEPAHISPAIPVIITAVYSVVFVVGLVGNSLVMFVIIRYTKMKTATNIYIFNLALADALVTTTMPFQSAVYLMNSWPFGDVLCKIVISIDYYNMFTSIFTLTMMSVDRYIAVCHPVKALDFRTPLKAKIINICIWLLASSVGISAIVLGGTKVREDVDVIECSLQFPDDEYSWWDLFMKICVFVFAFVIPVLIIIVCYTLMILRLKSVRLLSGSREKDRNLRRITKLVLVVVAVFIICWTPIHIFILVEALGSTSHSTAVLSSYYFCIALGYTNSSLNPVLYAFLDENFKRCFRDFCFPIKMRMERQSTNRVRNTVQDPASMRDVGGMNKPV
modifications: SNAPf tag covalently labelled with SNAP-Surface 549 or SNAP-CF660R
notes: whole, on cells; Homodimer partner is the same molecule labelled in the other colour; also called WT KOR
B3: SNAPf-DOR: rat DOR with the SNAPf tag protein at its N-terminus, expressed in the PM of CHO-K1 cells (Example 2) (receptor, not shown: small tags and cut ends)
chain: SGGGSGGSGGGSGGSGGGSGGMEPVPSARAELQFSLLANVSDTFPSAFPSASANASGSPGARSASSLALAIAITALYSAVCAVGLLGNVLVMFGIVRYTKLKTATNIYIFNLALADALATSTLPFQSAKYLMETWPFGELLCKAVLSIDYYNMFTSIFTLTMMSVDRYIAVCHPVKALDFRTPAKAKLINICIWVLASGVGVPIMVMAVTQPRDGAVVCTLQFPSPSWYWDTVTKICVFLFAFVVPILIITVCYGLMLLRLRSVRLLSGSKEKDRSLRRITRMVLVVVGAFVVCWAPIHIFVIVWTLVDINRRDPLVVAALHLCIALGYANSSLNPVLYAFLDENFKRCFRQLCRAPCGGQEPGSLRRPRQATARERVTACTPSDGPGGGAAA
modifications: SNAPf tag covalently labelled with SNAP-Surface 549 or SNAP-CF660R
notes: whole, on cells; Homodimer partner is the same molecule labelled in the other colour; also called WT DOR
B4: SNAPf-MOR: rat MOR with the SNAPf tag protein at its N-terminus, expressed in the PM of CHO-K1 cells (Example 2) (receptor, not shown: small tags and cut ends)
chain: SGGGSGGSGGGSGGSGGGSGGMDSSTGPGNTSDCSDPLAQASCSPAPGSWLNLSHVDGNQSDPCGLNRTGLGGNDSLCPQTGSPSMVTAITIMALYSIVCVVGLFGNFLVMYVIVRYTKMKTATNIYIFNLALADALATSTLPFQSVNYLMGTWPFGTILCKIVISIDYYNMFTSIFTLCTMSVDRYIAVCHPVKALDFRTPRNAKIVNVCNWILSSAIGLPVMFMATTKYRQGSIDCTLTFSHPTWYWENLLKICVFIFAFIMPVLIITVCYGLMILRLKSVRMLSGSKEKDRNLRRITRMVLVVVAVFIVCWTPIHIYVIIKALITIPETTFQTVSWHFCIALGYTNSCLNPVLYAFLDENFKRCFREFCIPTSSTIEQQNSTRVRQNTREHPSTANTVDRTNHQLENLEAETAPLP
modifications: SNAPf tag covalently labelled with SNAP-Surface 549 or SNAP-CF660R
notes: whole, on cells; Homodimer partner is the same molecule labelled in the other colour; also called WT MOR

Legend:
[1] = molecular target: T1, µ-type opioid receptor (MOR), rat, wild type, fluorescently tagged, expressed in the PM of CHO-K1 cells … (rat, UniProt P33535 1-398); experiment: colocalisation index, two-colour single-molecule imaging in CHO-K1 cells
T1 construct: whole, on cells; also called WT-MOR; MOR-Halo; not shown: Halo tag

[2] = molecular target: T1, µ-type opioid receptor (MOR), rat, wild …; experiment: dependence of the DOR-MOR colocalisation index on the concentration of the soluble peptide (competition on cells)
[3] = molecular target: the molecule itself; experiment: calculated from KD (FIG. 2-4f)
Experimental: Accordingly, by subtracting the signal intensity after the quencher addition from that before the addition, we evaluated the percentages of the OPR molecules remaining in the PM (FIG. 2-s9; FIG. 2-5a). The time courses of the OPR numbers remaining in the PM after time 0 were examined in both the presence and absence of 0.2 μM agonists and ˜3 μM FAM-Xpep-TATs in the cytoplasm (FIG. 2-5b).

[4] = molecular target: the molecule itself; experiment: cell-based or functional assay
[5] = molecular target: the molecule itself; experiment: inverse of the homodimer lifetime; no agonist
[6] = molecular target: the molecule itself; experiment: calculated from the equilibrium constants; no agonist
Experimental: (§1) The ratios of molecules that exist as dimers vs. monomers (D/M ratios) in terms of the number of protomers were calculated from KD at various expression levels (number density of molecules) (FIG. 2-4e, f). […] When they dissociate into monomers, they will again form dimers, but the rate of dimer formation depends on the number density of the monomers (and thus the expression levels).
(§2) The ratios of the numbers of protomers that exist as dimers vs. monomers at different expression levels in the PM were calculated from the three dynamic equilibrium constants and listed.

[7] = molecular target: the molecule itself; experiment: calculated from the equilibrium constants; after U-50488
Experimental: as §1, §2

[8] = molecular target: the molecule itself; experiment: inverse of the homodimer lifetime; after U-50488
[9] = molecular target: the molecule itself; experiment: colocalization durations; SNC-80 and FAM-Dpep-TAT present
[10] = molecular target: the molecule itself; experiment: calculated from the equilibrium constants; after SNC-80
Experimental: as §1, §2

[11] = molecular target: the molecule itself; experiment: inverse of the homodimer lifetime; after SNC-80
[12] = molecular target: the molecule itself; experiment: inverse of the homodimer lifetime; after DAMGO
[13] = molecular target: the molecule itself; experiment: calculated from the equilibrium constants; after DAMGO
Experimental: as §1, §2

Binder | % of copies existing as dimers at ˜1 copy/µm^2, before agonist [3] | Ca^2+ (FMax-Fb)/Fb; + Agonist + FAM-pep-TAT [4] | koff [5] | D/M ratio (protomers in dimers vs monomers) at 0.3 copies/µm^2 [6] | D/M ratio (protomers in dimers vs monomers) at 1 copies/µm^2 [6] | D/M ratio (protomers in dimers vs monomers) at 3 copies/µm^2 [6] | D/M ratio (protomers in dimers vs monomers) at 10 copies/µm^2 [6] | D/M ratio (protomers in dimers vs monomers) at 30 copies/µm^2 [6] | also measured
B1 |  |  |  |  |  |  |  |  | binding result [1]: no binding
SDTFPSAFPSASANASGSPGARS (also called DpepDM(20-42); DpepDM) [Dpep(20-42)DM, soluble peptide with the N-terminal domain sequence aa20-42 of DOR] |  |  |  |  |  |  |  |  | Kd [2]: < 100 nM
B2 | 33% | 2.46 (FMax-Fb)/Fb | 6.71 s⁻¹ | 0.19 | 0.5 | 1.08 | 2.28 | 4.26 | D/M ratio (protomers in dimers vs monomers) at 0.3 copies/µm^2 [7]: 0.07; D/M ratio (protomers in dimers vs monomers) at 1 copies/µm^2 [7]: 0.22; D/M ratio (protomers in dimers vs monomers) at 3 copies/µm^2 [7]: 0.52; D/M ratio (protomers in dimers vs monomers) at 10 copies/µm^2 [7]: 1.2; D/M ratio (protomers in dimers vs monomers) at 30 copies/µm^2 [7]: 2.35; koff [8]: 17.9 s⁻¹
B3 | 17% | 2.84 (FMax-Fb)/Fb | 8 s⁻¹ | 0.07 | 0.21 | 0.5 | 1.17 | 2.3 | fold of homodimer lifetime against wild-type DOR in the absence of the agonist [9]: ~1.5 fold; D/M ratio (protomers in dimers vs monomers) at 0.3 copies/µm^2 [10]: 0.15; D/M ratio (protomers in dimers vs monomers) at 1 copies/µm^2 [10]: 0.4; D/M ratio (protomers in dimers vs monomers) at 3 copies/µm^2 [10]: 0.89; D/M ratio (protomers in dimers vs monomers) at 10 copies/µm^2 [10]: 1.92; D/M ratio (protomers in dimers vs monomers) at 30 copies/µm^2 [10]: 3.62; koff [11]: 3.62 s⁻¹
B4 | 18% | 2.78 (FMax-Fb)/Fb | 8.47 s⁻¹ | 0.08 | 0.22 | 0.54 | 1.23 | 2.41 | koff [12]: 5.35 s⁻¹; D/M ratio (protomers in dimers vs monomers) at 0.3 copies/µm^2 [13]: 0.06; D/M ratio (protomers in dimers vs monomers) at 1 copies/µm^2 [13]: 0.17; D/M ratio (protomers in dimers vs monomers) at 3 copies/µm^2 [13]: 0.43; D/M ratio (protomers in dimers vs monomers) at 10 copies/µm^2 [13]: 1.02; D/M ratio (protomers in dimers vs monomers) at 30 copies/µm^2 [13]: 2.03
